Experimental data taken from US20080194485A1, “Detection and Use of Prolylcarboxypeptidase” (YALE UNIVERSITY, priority 2004, published 2008).

Target: recombinant PRCP51 (recombinant human prolylcarboxypeptidase, predicted molecular mass 51 kDa) (human) (UniProt P42785)
Assay: cell-based or functional assay

recombinant PRCP51 (recombinant human prolylcarboxypeptidase, predicted molecular mass 51 kDa) (human), sequence (P42785 46-496 limits assumed): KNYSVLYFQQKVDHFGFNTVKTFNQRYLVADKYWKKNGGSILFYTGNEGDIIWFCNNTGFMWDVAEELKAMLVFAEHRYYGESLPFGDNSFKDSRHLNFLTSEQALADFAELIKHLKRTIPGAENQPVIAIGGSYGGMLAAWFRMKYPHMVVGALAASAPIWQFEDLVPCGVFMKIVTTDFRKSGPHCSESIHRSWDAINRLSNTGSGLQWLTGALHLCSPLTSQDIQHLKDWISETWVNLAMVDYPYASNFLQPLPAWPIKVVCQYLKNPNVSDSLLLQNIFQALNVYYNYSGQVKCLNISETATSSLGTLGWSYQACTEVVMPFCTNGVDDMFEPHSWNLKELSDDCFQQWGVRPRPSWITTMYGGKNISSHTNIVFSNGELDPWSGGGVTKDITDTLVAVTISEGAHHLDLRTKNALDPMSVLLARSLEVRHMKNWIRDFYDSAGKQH

- inhibition of rPRCP51-induced prekallikrein (PK) activation (residual kallikrein activity on S2302), IC50: 150 µM
Substance: angiotensinogen II (AgII) (from UniProt P01019 25-32) (peptide)
